The labels stand for the following.
B1: AIC+SRS-((tBu)A)-PPI-(Pen)+IPn-NH2 (peptide)
peptide: AICSRS[tBuAla]PPI[Pen]IP[dN]-NH2
modifications: disulfide 3-11; N-terminus assumed
SMILES: CC[C@H](C)[C@H](NC(=O)[C@H](C)N)C(=O)N[C@H]1CSSC(C)(C)[C@@H](C(=O)N[C@H](C(=O)N2CCC[C@H]2C(=O)N[C@H](CC(N)=O)C(N)=O)[C@@H](C)CC)NC(=O)[C@H]([C@@H](C)CC)NC(=O)[C@@H]2CCCN2C(=O)[C@@H]2CCCN2C(=O)[C@H](CC(C)(C)C)NC(=O)[C@H](CO)NC(=O)[C@H](CCCNC(=N)N)NC(=O)[C@H](CO)NC1=O
B2: KIC+SRS-((tBu)A)-PPI-((N-Me)C)+IPD-NH2 (peptide)
peptide: KICSRS[tBuAla]PPI[NMeC]IPD-NH2
modifications: disulfide 3-11; N-terminus assumed
SMILES: CC[C@H](C)[C@H](NC(=O)[C@@H](N)CCCCN)C(=O)N[C@H]1CSSC[C@@H](C(=O)N[C@H](C(=O)N2CCC[C@H]2C(=O)N[C@@H](CC(=O)O)C(N)=O)[C@@H](C)CC)N(C)C(=O)[C@H]([C@@H](C)CC)NC(=O)[C@@H]2CCCN2C(=O)[C@@H]2CCCN2C(=O)[C@H](CC(C)(C)C)NC(=O)[C@H](CO)NC(=O)[C@H](CCCNC(=N)N)NC(=O)[C@H](CO)NC1=O
B3: AIC+SRS-((tBu)A)-P-(Oic)-I-(Pen)+IPD-OH (peptide)
peptide: AICSRS[tBuAla]P[Oic]I[Pen]IPD-OH
modifications: disulfide 3-11; N-terminus assumed
SMILES: CC[C@H](C)[C@H](NC(=O)[C@H](C)N)C(=O)N[C@H]1CSSC(C)(C)[C@@H](C(=O)N[C@H](C(=O)N2CCC[C@H]2C(=O)N[C@@H](CC(=O)O)C(=O)O)[C@@H](C)CC)NC(=O)[C@H]([C@@H](C)CC)NC(=O)[C@@H]2C[C@@H]3CCCC[C@@H]3N2C(=O)[C@@H]2CCCN2C(=O)[C@H](CC(C)(C)C)NC(=O)[C@H](CO)NC(=O)[C@H](CCCNC(=N)N)NC(=O)[C@H](CO)NC1=O
B4: AIC+SRS-((tBu)A)-P-((6S)-5-Azaspiro[2.4]heptane-6-carboxylic acid)-I-(Pen)+IPD-OH (peptide)
peptide: AICSRS[tBuAla]P[Pro(4-spirocPr)]I[Pen]IPD-OH
modifications: disulfide 3-11; N-terminus assumed
SMILES: CC[C@H](C)[C@H](NC(=O)[C@H](C)N)C(=O)N[C@H]1CSSC(C)(C)[C@@H](C(=O)N[C@H](C(=O)N2CCC[C@H]2C(=O)N[C@@H](CC(=O)O)C(=O)O)[C@@H](C)CC)NC(=O)[C@H]([C@@H](C)CC)NC(=O)[C@@H]2CC3(CC3)CN2C(=O)[C@@H]2CCCN2C(=O)[C@H](CC(C)(C)C)NC(=O)[C@H](CO)NC(=O)[C@H](CCCNC(=N)N)NC(=O)[C@H](CO)NC1=O
B5: ((N-Me)G)-IC+SRS-((tBu)A)-PPI-(Pen)+IP-(PEG3(16atoms))-NH2 (peptide)
peptide: [Sar]ICSRS[tBuAla]PPI[Pen]IP[PEG4]-NH2
modifications: disulfide 3-11; N-terminus assumed
SMILES: CC[C@H](C)[C@H](NC(=O)CNC)C(=O)N[C@H]1CSSC(C)(C)[C@@H](C(=O)N[C@H](C(=O)N2CCC[C@H]2C(=O)NCCOCCOCCOCCOCCC(N)=O)[C@@H](C)CC)NC(=O)[C@H]([C@@H](C)CC)NC(=O)[C@@H]2CCCN2C(=O)[C@@H]2CCCN2C(=O)[C@H](CC(C)(C)C)NC(=O)[C@H](CO)NC(=O)[C@H](CCCNC(=N)N)NC(=O)[C@H](CO)NC1=O
B6: RIC+SRS-((tBu)A)-PPI-((N-Me)C)+IPD-NH2 (peptide)
peptide: RICSRS[tBuAla]PPI[NMeC]IPD-NH2
modifications: disulfide 3-11; N-terminus assumed
SMILES: CC[C@H](C)[C@H](NC(=O)[C@@H](N)CCCNC(=N)N)C(=O)N[C@H]1CSSC[C@@H](C(=O)N[C@H](C(=O)N2CCC[C@H]2C(=O)N[C@@H](CC(=O)O)C(N)=O)[C@@H](C)CC)N(C)C(=O)[C@H]([C@@H](C)CC)NC(=O)[C@@H]2CCCN2C(=O)[C@@H]2CCCN2C(=O)[C@H](CC(C)(C)C)NC(=O)[C@H](CO)NC(=O)[C@H](CCCNC(=N)N)NC(=O)[C@H](CO)NC1=O
B7: ((N-Me)A)-IC+SRS-((tBu)A)-P-(Oic)-I-(Pen)+IP-NH2 (peptide)
peptide: [NMeA]ICSRS[tBuAla]P[Oic]I[Pen]IP-NH2
modifications: disulfide 3-11; N-terminus assumed
SMILES: CC[C@H](C)[C@H](NC(=O)[C@H](C)NC)C(=O)N[C@H]1CSSC(C)(C)[C@@H](C(=O)N[C@H](C(=O)N2CCC[C@H]2C(N)=O)[C@@H](C)CC)NC(=O)[C@H]([C@@H](C)CC)NC(=O)[C@@H]2C[C@@H]3CCCC[C@@H]3N2C(=O)[C@@H]2CCCN2C(=O)[C@H](CC(C)(C)C)NC(=O)[C@H](CO)NC(=O)[C@H](CCCNC(=N)N)NC(=O)[C@H](CO)NC1=O
B8: (Nle)-IC+SRS-((tBu)A)-PPI-((N-Me)C)+I-NH2 (peptide)
peptide: [Nle]ICSRS[tBuAla]PPI[NMeC]I-NH2
modifications: disulfide 3-11; N-terminus assumed
SMILES: CCCC[C@H](N)C(=O)N[C@H](C(=O)N[C@H]1CSSC[C@@H](C(=O)N[C@H](C(N)=O)[C@@H](C)CC)N(C)C(=O)[C@H]([C@@H](C)CC)NC(=O)[C@@H]2CCCN2C(=O)[C@@H]2CCCN2C(=O)[C@H](CC(C)(C)C)NC(=O)[C@H](CO)NC(=O)[C@H](CCCNC(=N)N)NC(=O)[C@H](CO)NC1=O)[C@@H](C)CC
B9: AIC+SRS-((tBu)A)-PPI-((N-Me)C)+I-NH2 (peptide)
peptide: AICSRS[tBuAla]PPI[NMeC]I-NH2
modifications: disulfide 3-11; N-terminus assumed
SMILES: CC[C@H](C)[C@H](NC(=O)[C@@H]1CSSC[C@H](NC(=O)[C@@H](NC(=O)[C@H](C)N)[C@@H](C)CC)C(=O)N[C@@H](CO)C(=O)N[C@@H](CCCNC(=N)N)C(=O)N[C@@H](CO)C(=O)N[C@@H](CC(C)(C)C)C(=O)N2CCC[C@H]2C(=O)N2CCC[C@H]2C(=O)N[C@@H]([C@@H](C)CC)C(=O)N1C)C(N)=O
B10: AIC+SRSLP-((6S)-5-Azaspiro[2.4]heptane-6-carboxylic acid)-I-(Pen)+IPD-NH2 (peptide)
peptide: AICSRSLP[Pro(4-spirocPr)]I[Pen]IPD-NH2
modifications: disulfide 3-11; N-terminus assumed
SMILES: CC[C@H](C)[C@H](NC(=O)[C@H](C)N)C(=O)N[C@H]1CSSC(C)(C)[C@@H](C(=O)N[C@H](C(=O)N2CCC[C@H]2C(=O)N[C@@H](CC(=O)O)C(N)=O)[C@@H](C)CC)NC(=O)[C@H]([C@@H](C)CC)NC(=O)[C@@H]2CC3(CC3)CN2C(=O)[C@@H]2CCCN2C(=O)[C@H](CC(C)C)NC(=O)[C@H](CO)NC(=O)[C@H](CCCNC(=N)N)NC(=O)[C@H](CO)NC1=O
B11: AIC+SRS-((tBu)A)-PPI-(Pen)+IPe-NH2 (peptide)
peptide: AICSRS[tBuAla]PPI[Pen]IP[dE]-NH2
modifications: disulfide 3-11; N-terminus assumed
SMILES: CC[C@H](C)[C@H](NC(=O)[C@H](C)N)C(=O)N[C@H]1CSSC(C)(C)[C@@H](C(=O)N[C@H](C(=O)N2CCC[C@H]2C(=O)N[C@H](CCC(=O)O)C(N)=O)[C@@H](C)CC)NC(=O)[C@H]([C@@H](C)CC)NC(=O)[C@@H]2CCCN2C(=O)[C@@H]2CCCN2C(=O)[C@H](CC(C)(C)C)NC(=O)[C@H](CO)NC(=O)[C@H](CCCNC(=N)N)NC(=O)[C@H](CO)NC1=O
B12: ((N-Me)A)-IC+SRS-((tBu)A)-PPI-(Pen)+IPD-NH2 (peptide)
peptide: [NMeA]ICSRS[tBuAla]PPI[Pen]IPD-NH2
modifications: disulfide 3-11; N-terminus assumed
SMILES: CC[C@H](C)[C@H](NC(=O)[C@H](C)NC)C(=O)N[C@H]1CSSC(C)(C)[C@@H](C(=O)N[C@H](C(=O)N2CCC[C@H]2C(=O)N[C@@H](CC(=O)O)C(N)=O)[C@@H](C)CC)NC(=O)[C@H]([C@@H](C)CC)NC(=O)[C@@H]2CCCN2C(=O)[C@@H]2CCCN2C(=O)[C@H](CC(C)(C)C)NC(=O)[C@H](CO)NC(=O)[C@H](CCCNC(=N)N)NC(=O)[C@H](CO)NC1=O
B13: AIC+SRS-((tBu)A)-PPI-((N-Me)C)+(2-[(1S,2S)-1-(Amino)-2-methylbutyl]-1,3-oxazole-4-carboxylic acid)-D-NH2 (peptide)
peptide: AICSRS[tBuAla]PPI[NMeC][X17]D-NH2
modifications: disulfide 3-11; N-terminus assumed
SMILES: CC[C@H](C)[C@H](NC(=O)[C@H](C)N)C(=O)N[C@H]1CSSC[C@@H](C(=O)N[C@H](c2nc(C(=O)N[C@@H](CC(=O)O)C(N)=O)co2)[C@@H](C)CC)N(C)C(=O)[C@H]([C@@H](C)CC)NC(=O)[C@@H]2CCCN2C(=O)[C@@H]2CCCN2C(=O)[C@H](CC(C)(C)C)NC(=O)[C@H](CO)NC(=O)[C@H](CCCNC(=N)N)NC(=O)[C@H](CO)NC1=O

Numbered stars: 1 amine (or outer) side, 2 acyl side, 3 side chain; on linkers, the order of the positions; unused ones are H or OH. Bridge positions count the residues as written; N and C are the ends. Square brackets hold non-standard residues; d marks the D form. Ends that are not written are not given here. X17 = 2‑((1S,2S)-1-(Amino)-2-methylbutyl)‑1,3‑oxazole‑4‑carboxylic acid, CC[C@H](C)[C@H](N[*:1])c1nc(C(=O)[*:2])co1; Pro(4-spirocPr) = O=C(O)[C@@H]1CC2(CC2)CN1; Oic = O=C(O)[C@@H]1C[C@@H]2CCCC[C@@H]2N1; tBuAla = CC(C)(C)C[C@H](N)C(=O)O; PEG4 = NCCOCCOCCOCCOCCC(=O)O; Pen = CC(C)(S)[C@H](N)C(=O)O; NMeC = CN[C@@H](CS)C(=O)O; NMeA = CN[C@@H](C)C(=O)O; Nle = CCCC[C@H](N)C(=O)O; Sar = CNCC(=O)O

Sequence of recombinant human MASP2 active protease (amino acids 297-686, C-terminal His Tag) (O00187 other isoform, or with tags, fused parts or gaps limits assumed): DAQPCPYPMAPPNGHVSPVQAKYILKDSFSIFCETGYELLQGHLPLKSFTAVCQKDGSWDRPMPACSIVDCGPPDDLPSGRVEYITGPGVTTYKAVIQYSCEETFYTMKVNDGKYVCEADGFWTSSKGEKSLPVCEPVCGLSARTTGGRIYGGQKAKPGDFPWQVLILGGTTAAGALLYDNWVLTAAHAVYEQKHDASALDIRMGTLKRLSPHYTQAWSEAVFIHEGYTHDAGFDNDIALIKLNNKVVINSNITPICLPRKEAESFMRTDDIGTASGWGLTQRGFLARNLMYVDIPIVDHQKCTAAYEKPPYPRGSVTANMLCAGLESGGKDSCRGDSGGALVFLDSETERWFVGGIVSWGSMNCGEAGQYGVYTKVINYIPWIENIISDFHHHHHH

For the first experiment, the target named is T1, recombinant human MASP1 active protease (amino acids 297-699, C-terminal His Tag) (human, UniProt P48740 297-699).
T1 sequence: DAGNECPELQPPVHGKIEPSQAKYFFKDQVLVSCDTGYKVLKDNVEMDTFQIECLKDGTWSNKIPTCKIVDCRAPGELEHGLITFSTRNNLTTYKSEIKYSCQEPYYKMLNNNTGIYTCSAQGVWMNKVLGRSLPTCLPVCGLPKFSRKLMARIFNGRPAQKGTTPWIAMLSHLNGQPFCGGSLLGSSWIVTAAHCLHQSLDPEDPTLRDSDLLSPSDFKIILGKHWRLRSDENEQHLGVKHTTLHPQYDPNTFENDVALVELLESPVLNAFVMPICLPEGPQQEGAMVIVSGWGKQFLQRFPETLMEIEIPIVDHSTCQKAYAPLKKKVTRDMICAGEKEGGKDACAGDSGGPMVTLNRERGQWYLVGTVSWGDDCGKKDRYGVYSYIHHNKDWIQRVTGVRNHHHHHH
As to the kind of experiment: cell-based or functional assay.
Take B1: the “human MASP1 IC50” value came out at 1.4 nM.
Turning to [2‑(Pyrrolidine)acetyl]ICSRS[tBuAla]PPI[Pen]IPD-NH2 (disulfide 3-11) [(2-(Pyrrolidine)acetyl)-IC+SRS-((tBu)A)-PPI-(Pen)+IPD-NH2], the “human MASP1 IC50” value amounted to 1.3 nM.
Still for that read-out and setting: the same measure for B2: 1.65 nM; for B3: 1.3 nM; for B4: 1.57 nM.
For B5, the “human MASP1 IC50” value turned out to be 1.3 nM.
Still for that read-out and setting: the same measure for B6: 1.36 nM.
Still for that read-out and setting: the same measure for B7: 1.4 nM.
AICSRS[tBuAla]PPI[NMeC]IPD-NH2 (disulfide 3-11; also: HCl salt) [AIC+SRS-((tBu)A)-PPI-((N-Me)C)+IPD-NH2 (HCl salt)]: the “human MASP1 IC50” value is 1.53 nM.
In the case of B8, the “human MASP1 IC50” value worked out at 1.5 nM.
With B9, the “human MASP1 IC50” value is 1.5 nM.
Still for that read-out and setting: the same measure for B10: 1.33 nM.
The same measure, in the same setting: the same measure for B11: 1.4 nM; for B12: 1.43 nM.
For B13, the “human MASP1 IC50” value came out at 1.4 nM.

A further experiment concerns the target recombinant human MASP2 active protease (amino acids 297-686, C-terminal His Tag) (human, UniProt O00187 297-686). As to the kind of experiment: cell-based or functional assay.
Take B1: the “human MASP2 IC50” value came to 53 nM.
Consider [2‑(Pyrrolidine)acetyl]ICSRS[tBuAla]PPI[Pen]IPD-NH2 (disulfide 3-11) [(2-(Pyrrolidine)acetyl)-IC+SRS-((tBu)A)-PPI-(Pen)+IPD-NH2], for which the “human MASP2 IC50” value came out at 87 nM.
In the case of B2, the “human MASP2 IC50” value was determined as 120 nM.
Regarding B3, the “human MASP2 IC50” value was found to be 62 nM.
As to B4, the “human MASP2 IC50” value was determined as 17.7 nM.
In the case of B5, the “human MASP2 IC50” value was 28 nM.
Still for that read-out and setting: with B6 the figure was 100 nM; with B7, 40 nM; with AICSRS[tBuAla]PPI[NMeC]IPD-NH2 (disulfide 3-11; also: HCl salt) [AIC+SRS-((tBu)A)-PPI-((N-Me)C)+IPD-NH2 (HCl salt)], 140 nM.
For B8, the “human MASP2 IC50” value was 56 nM.
With B9, the “human MASP2 IC50” value turned out to be 100 nM.
On to B10, for which the “human MASP2 IC50” value amounted to 18 nM.
In the case of B11, the “human MASP2 IC50” value stood at 62 nM.
On the same count and under the same terms, the same measure for B12: 98 nM; for B13: 720 nM.

These data come from patent US20210246166A1 (Bayer, published 2021).
